According to PMC12167799, “The role of human Shu complex in ATP-dependent regulation of RAD51 filaments during homologous recombination–associated DNA damage response” (The Journal of Biological Chemistry, 2025):

Biological target: human RAD51 (human) (UniProt Q06609)
Sequence (Q06609 whole entry): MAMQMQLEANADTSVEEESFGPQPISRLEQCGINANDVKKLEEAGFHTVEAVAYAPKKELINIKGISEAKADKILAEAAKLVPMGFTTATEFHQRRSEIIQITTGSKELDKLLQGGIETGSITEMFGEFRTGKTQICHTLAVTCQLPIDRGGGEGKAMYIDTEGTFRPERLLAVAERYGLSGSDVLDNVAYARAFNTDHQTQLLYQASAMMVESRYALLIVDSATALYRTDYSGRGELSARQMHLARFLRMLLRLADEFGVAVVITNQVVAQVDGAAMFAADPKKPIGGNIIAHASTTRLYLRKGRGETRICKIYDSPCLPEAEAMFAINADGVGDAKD

human Shu complex hSWS1-SWSAP1, wildtype (from UniProt Q19AV6 1-140; Q6NVH7 1-250)
fluorescence intensity of 5′-6-FAM-labeled RAD51-ssDNA filaments (1 μM RAD51, 15 nM poly-dT39, 2 mM ATP) after addition of 50 nM hSWS1-SWSAP1, 10-s intervals over 60 s: 40%
